Source: the supplement of paper PMC9170038

Tested on: MS2 coat protein
Experiment: apparent KD of MS2 coat protein; designed switch direction (-1 OFF switch, 1 ON switch): -1; higher = weaker reporter binding
Summary of the method: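 RNA switches sharing common flanks were transcribed by stalled E. coli RNA polymerase on Illumina chips. A doubling series of SNAP-549-labelled MS2 coat protein, from 0.7 or 1.5 nM to 3 µM, was applied in Tris-HCl pH 7.5 buffer with KCl, MgCl2, BSA, DTT, tRNA and Tween-20. Each step lasted 0.8–1.5 h at the bottom of the series and 10–20 min at the top. Normalised cluster fluorescence was curve-fitted, giving apparent KD as the per-design median over clusters.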

[1] = input ligand: microRNA oligo, concentration not stated
[2] = Eterna round: R95, input ligand: microRNA oligo, concentration not stated
[3] = Eterna round: R95, input ligand: FMN 200 uM
[4] = Eterna round: R95, input ligand: none

## CUAGACGGAGGAUAUACGAGAUCGAAAGAUCGGCGAUCCCUACAUGAGGAUCACCCAUGUAGAAGGCUGUUUAG [Mod 19 - Jieux - Exclusion 2] (Eterna round: R97, puzzle: Exclusion 2)
Input ligand: FMN 200 uM
  apparent KD of MS2 coat protein: 0.0699 µM
Input ligand: none
  apparent KD of MS2 coat protein: 0.0162 µM

## GUACUGACAGGAUAUACAUGAGGAUCACCCAUGUCCUUAAGCUGACAAAAGUCAGCGAGUAGAAGGGUCUGUAC [Omei Ex3 Model Bachelor's Dilema v4] (Eterna round: R97, puzzle: Exclusion 3)
Input ligand: FMN 200 uM
  apparent KD of MS2 coat protein: 0.467 µM
Input ligand: none
  apparent KD of MS2 coat protein: 0.0719 µM

## UAUAUAUAGUAAGGAUAUGUAUUUAUUUGAUAAACAGAAGGUACUGACAUGAGGAUCACCCAUGUUUUAGUGUGGGCAUGUAGA [JMF's solution 20] (Eterna round: R96, puzzle: Exclusion NG 1)
[1]
  apparent KD of MS2 coat protein: 0.0699 µM

## GCCUUAUCCGUCAGGAUAUACAUUUUUUUUUUUUUGUAGAAGGGACAUGAGGAUCACCCAUGUACAUUACAUUG [alecazam17] (Eterna round: R97, puzzle: Brourd's mod of Exclusion 4)
Input ligand: FMN 200 uM
  apparent KD of MS2 coat protein: 0.041 µM
Input ligand: none
  apparent KD of MS2 coat protein: 0.0229 µM

## UAUUAGCAAGUAAGAUCCCACAUGAGGAUCACCCAUGUGCUCGUCUUAUAAGGUACUGUGACGAAAGUCACGGUACC [Sensor 3, v1 - 88] (Eterna round: R96, puzzle: Sensor v3, turn-off variant 1)
Input ligand: FMN 200 uM
  apparent KD of MS2 coat protein: 0.0167 µM
[1]
  apparent KD of MS2 coat protein: 0.313 µM
Input ligand: none
  apparent KD of MS2 coat protein: 0.0181 µM

## AACAAGCUUUAAAGAUCCCACAUGAGGAUCACCCAUGUGCUCGUCUUGUAACGUACUGUGACGAAAGUCACGGUACG [JL TOV1 3.28] (Eterna round: R97, puzzle: Sensor, turn-off variant 1)
Input ligand: FMN 200 uM
  apparent KD of MS2 coat protein: 0.0246 µM
Input ligand: none
  apparent KD of MS2 coat protein: 0.0239 µM

## GUCAGCUCGUGAGGAUAUACAUCACUGCUUCGGCAGUGUAUUAAGAUCACAUGAGGAUCACCCAUGUAGAAGGUACGAGCUGAU [ENG2/2-C2] (Eterna round: R96, puzzle: Exclusion NG 2)
Input ligand: FMN 200 uM
  apparent KD of MS2 coat protein: 0.214 µM
[1]
  apparent KD of MS2 coat protein: 0.0176 µM
Input ligand: none
  apparent KD of MS2 coat protein: 0.0269 µM

## UACUUCUGAGGAUAUACAUGAGGAUCACCCAUGUUGAUACCGACCUAAAGUCCAUUACGUAGAAGGCAGCAGUG [Eternabot (L1) Solution 91] (Eterna round: R97, puzzle: Exclusion 3)
Input ligand: FMN 200 uM
  apparent KD of MS2 coat protein: 0.0354 µM
Input ligand: none
  apparent KD of MS2 coat protein: 0.0236 µM

## GGUACUCAAAGAGUACCAAUACGAACAUGAGGAUCACCCAUGUAGGAUAUGCUACUCAAAGAGUAGCAGAAGGACGUGUACCCU [Far Half Aptamer v2] (Eterna round: R96, puzzle: Exclusion NG 3)
Input ligand: FMN 200 uM
  apparent KD of MS2 coat protein: 0.0599 µM
[1]
  apparent KD of MS2 coat protein: 0.0219 µM
Input ligand: none
  apparent KD of MS2 coat protein: 0.0248 µM

## GGAUCGAGUGUGAGGAUAUGCUGGUCGUAAGAUCAGCAGAAGGCACAUGAGGAUCACCCAUGUGAAAACGGUCC [Mat - Exclusion 4 - JL Mod - D72] (puzzle: Brourd's mod of Exclusion 4)
[2]
  apparent KD of MS2 coat protein: 0.0256 µM

## AGCUGUGGCCAAGGAUAUCCAGCCUUAAAUACCGACGUAUAGUCGGACAUGAGGAUCACCCAUGUGGAGAAGGUGGUCUCAGCA [Eli eng2 - 040] (Eterna round: R96, puzzle: Exclusion NG 2)
Input ligand: FMN 200 uM
  apparent KD of MS2 coat protein: 0.109 µM
[1]
  apparent KD of MS2 coat protein: 0.045 µM
Input ligand: none
  apparent KD of MS2 coat protein: 0.0568 µM

## CAUUUCUGUCGUUGAUCCAACAUGAGGAUCACCCAUGUCUCUUUAGCUUUUUGCUCGUCUUAUCCUCCUUUGUUCAC [JR_STOV1_Sub099] (Eterna round: R97, puzzle: Sensor, turn-off variant 1)
Input ligand: FMN 200 uM
  apparent KD of MS2 coat protein: 0.499 µM
Input ligand: none
  apparent KD of MS2 coat protein: 0.835 µM

## GGGAUGUCAGGAUAUCCAAAAGUCUGCCAAUACAGCAGACAGGAGAAGGGACAUGAGGAUCACCCAUGUAAAGA [Atonis] (puzzle: Exclusion 4)
[2]
  apparent KD of MS2 coat protein: 0.0335 µM

## GAAAACCUAGGAUAUACAUGAGGAUCACCCAUGUGAAAACCUCUUAAAACUUAACAAUGUAGAAGGAGGAAAAC [Azaqure] (puzzle: Exclusion 3)
[3]
  apparent KD of MS2 coat protein: 0.0399 µM
[2]
  apparent KD of MS2 coat protein: 0.0432 µM
[4]
  apparent KD of MS2 coat protein: 0.0383 µM

## AGUACUAUGCGAGCUGACUUGCGUAGUGCAGCAGGUGGAACAUGAGGAUCACCCAUGUCCUCAUUUGCUCGUCUUAA [Mat - Sensor v3 - Turn-off var 2 - D5] (puzzle: Sensor v3, turn-off variant 2)
[3]
  apparent KD of MS2 coat protein: 0.0274 µM
[2]
  apparent KD of MS2 coat protein: 0.109 µM
[4]
  apparent KD of MS2 coat protein: 0.0298 µM

## UUUUUAUAUGAAGGAUAUACUUAACAUGAGGAUCACCCAUGUGGUGUUGUGAGUGAGUGAGUUUAGUAGAAGGUCAAUUAUCUU [JMF's solution 14] (Eterna round: R96, puzzle: Exclusion NG 2)
Input ligand: FMN 200 uM
  apparent KD of MS2 coat protein: 0.699 µM
[1]
  apparent KD of MS2 coat protein: 0.309 µM
Input ligand: none
  apparent KD of MS2 coat protein: 0.373 µM

## AUUAGUAUCUAGGAUAUCUAGUACAUAGUAUCUAGAGAAGGAGAUACAUGAGGAUCACCCAUGUUCUGUGAUCU [Exclusion 6 - 2:a] (puzzle: Exclusion 6)
[2]
  apparent KD of MS2 coat protein: 0.155 µM

## AAAUAAUAGAUAAAAUAAAACAUGAGGAUCACCCAUGUGGGAUGAUGAGGGUGAAACAAGCUUUUUGCUCGUCUUAU (puzzle: Sensor v3, turn-off variant 1)
[3]
  apparent KD of MS2 coat protein: 0.386 µM
[2]
  apparent KD of MS2 coat protein: 0.919 µM
[4]
  apparent KD of MS2 coat protein: 0.439 µM

## UGCAGACGAGGAUAUAAAUGAUAUAACAUGAGGAUCACCCAUGUACGAUCGAAUGAUCGUUUAGAAGGCGUCUGCA [E5/11-A2] (Eterna round: R97, puzzle: Exclusion 5)
Input ligand: FMN 200 uM
  apparent KD of MS2 coat protein: 0.0185 µM
Input ligand: none
  apparent KD of MS2 coat protein: 0.0174 µM

## UAGUGGCAAGGAUAUACAGUGGAGAGGAUUGCAAGAGGUGGACAUGAGGAUCACCCAUGUAGAAGGUGCAGAGA [JR_Exclu2_Sub023] (puzzle: Exclusion 2)
[2]
  apparent KD of MS2 coat protein: 0.203 µM

## ACUAUACGAGGAUAUACUGACGGGCCUCAGGCAUCCAUCAGACAUGAGGAUCACCCAUGUAGAAGGCGUAUACU [JR_Exc002_Sub408] (Eterna round: R96, puzzle: Exclusion 2)
Input ligand: FMN 200 uM
  apparent KD of MS2 coat protein: 0.459 µM
[1]
  apparent KD of MS2 coat protein: 0.0444 µM
Input ligand: none
  apparent KD of MS2 coat protein: 0.0514 µM

## AGCUGUGGCCGAGGAUAUCCACAUGAGGAUCACCCAUGUUGAUACGCCGUUAGGCGAUAUAGAAGGGAGAAGGCGGUCUCAGCA [Eli eng2 - 050] (Eterna round: R96, puzzle: Exclusion NG 2)
Input ligand: FMN 200 uM
  apparent KD of MS2 coat protein: 0.00784 µM
[1]
  apparent KD of MS2 coat protein: 0.00726 µM
Input ligand: none
  apparent KD of MS2 coat protein: 0.0137 µM

## UUUUUCGAACAAGCUUCGUACAUGAGGAUCACCCAUGUUGGUAGAUUUGAGUAGGUUUGGAUGUAAGCUCGUCUUAU [JR_SV3TOV1_Sub082] (puzzle: Sensor v3, turn-off variant 1)
[3]
  apparent KD of MS2 coat protein: 0.0987 µM
[2]
  apparent KD of MS2 coat protein: 0.313 µM
[4]
  apparent KD of MS2 coat protein: 0.129 µM

## UAAGAGUAUGUUAGGAUAUGCUGGUCCUUGGAUCAGCAGAAGGAACAUGAGGAUCACCCAUGUAGAAUCUUUUA [Mod of JL 17 - Jieux - Brourd's mod of Exclusion 4] (Eterna round: R97, puzzle: Brourd's mod of Exclusion 4)
Input ligand: FMN 200 uM
  apparent KD of MS2 coat protein: 0.0748 µM
Input ligand: none
  apparent KD of MS2 coat protein: 0.0213 µM

## GCAGGCGUCUAGGCUCGUCUUAUUUUGAGAGGAUUGAUAACAUGAGGAUCACCCAUGUUUGUGGGAGAGUUGCAGUG [JR_SV3TOV2_Sub015] (puzzle: Sensor v3, turn-off variant 2)
[3]
  apparent KD of MS2 coat protein: 0.121 µM
[2]
  apparent KD of MS2 coat protein: 0.241 µM
[4]
  apparent KD of MS2 coat protein: 0.143 µM
